Article PMC4729596

Biological target: VC-Vam7 (yeast) (UniProt P32912)
Assay: split reporter

Chain of UniProt P32912 (P32912 whole entry): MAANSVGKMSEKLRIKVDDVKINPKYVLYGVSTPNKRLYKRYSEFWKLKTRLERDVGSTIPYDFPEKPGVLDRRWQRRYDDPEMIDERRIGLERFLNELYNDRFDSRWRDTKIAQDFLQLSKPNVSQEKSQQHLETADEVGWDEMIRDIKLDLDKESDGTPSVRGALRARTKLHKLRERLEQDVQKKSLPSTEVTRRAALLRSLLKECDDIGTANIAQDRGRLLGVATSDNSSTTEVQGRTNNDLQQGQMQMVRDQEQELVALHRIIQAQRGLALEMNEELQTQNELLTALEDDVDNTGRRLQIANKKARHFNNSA

For “VN-Atg11 (from UniProt Q12527 1-1178) (natural protein)”, the percent of cells with a vYFP signal was > 90 % of cells.
